According to patent US20260042834A1 (HBM ALPHA THERAPEUTICS, published 2026):
Residue numbers refer to the chain shown, from its start. Like-named read-outs stand apart in the source and are kept apart here.

T1: corticotropin-releasing hormone (CRH) peptide (human and mouse (same sequence), not fully specified)
T1 peptide: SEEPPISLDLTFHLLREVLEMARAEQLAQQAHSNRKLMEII

T2: corticotropin-releasing hormone (CRH) peptide (human and mouse, not fully specified)
T2 peptide: T1 peptide

T3: CRH (CT-Biotin) (human and mouse, biotin on the added C-terminal K (-K-Biotin))
T3 construct: also called Peptide 4 (CRH-Biotin); C-terminally biotinylated corticotropin-releasing hormone
T3 peptide: T1 peptide

T4: CRH (NT-Biotin) (human and mouse, not fully specified; biotin at the N-terminus)
T4 construct: also called Biotin-CRH; N-terminally biotinylated corticotropin-releasing hormone
T4 peptide: T1 peptide

B1: PR302309-1 (antibody, human IgG1, kappa, V domains shown)
VH: QIQLVQSGPELKKPGETVKISCKASGYTFTNYGMNWVKQAPGKVLKWMGWINTYTGEPIYTDDFKGRFAFSLETSASTAYLQINNLKNEDTATYFCSRSTMITTGGVFAYWGQGTLVTVSA
VL: DVVMTQSPLSLPVTLGQPASISCRSSQTIVHSDGNTYLEWFQQRPGQSPRRLIYKVSNRFSGVPDRFSGSGSGTDFTLKISRVEAEDVGVYYCFQGSHVPWTFGGGTKVEIKR
B2: PR302309-2 (antibody, human IgG1, kappa, V domains shown)
VH: B1 VH
VL: B1 VL with F41Y, R51L, V88L
B3: PR302309-3 (antibody, human IgG1, kappa, V domains shown)
VH: B1 VH
VL: B1 VL with V2I, S7T, P12S, L15P, F41Y, Q42L, R44K, R50Q, R51L
B4: PR302309-4 (antibody, human IgG1, kappa, V domains shown)
VH: B1 VH
VL: B1 VL with S7T, P12S, L15P, F41Y, Q42L, R44K, R50Q, R51L, V88L
B5: PR302309-5 (antibody, human IgG1, kappa, V domains shown)
VH: B1 VH
VL: B1 VL with V2I, S7T, L11S, F41L, S48P, R51L, S72A
B6: PR302309-6 (antibody, human IgG1, kappa, V domains shown)
VH: B1 VH
VL: B1 VL with S7T, L11S, F41Y, S48P, R51L, S72A, V88L
B7: PR302309-7 (antibody, human IgG1, kappa, V domains shown)
VH: QIQLVQSGSELKKPGASVKVSCKASGYTFTNYGMNWVRQAPGQGLEWMGWINTYTGEPIYTDDFKGRFVFSLDTSVSTAYLQISSLKAEDTAVYYCSRSTMITTGGVFAYWGQGTLVTVSS
VL: B1 VL
B8: PR302309-8 (antibody, human IgG1, kappa, V domains shown)
VH: B7 VH
VL: B1 VL with F41Y, R51L, V88L
B9: PR302309-9 (antibody, human IgG1, kappa, V domains shown)
VH: B7 VH
VL: B1 VL with V2I, S7T, P12S, L15P, F41Y, Q42L, R44K, R50Q, R51L
B10: PR302309-10 (antibody, human IgG1, kappa, V domains shown)
VH: B7 VH
VL: B1 VL with S7T, P12S, L15P, F41Y, Q42L, R44K, R50Q, R51L, V88L
B11: PR302309-11 (antibody, human IgG1, kappa, V domains shown)
VH: B7 VH
VL: B1 VL with V2I, S7T, L11S, F41L, S48P, R51L, S72A
B12: PR302309-12 (antibody, human IgG1, kappa, V domains shown)
VH: B7 VH
VL: B1 VL with S7T, L11S, F41Y, S48P, R51L, S72A, V88L
B13: PR302309-13 (antibody, human IgG1, kappa, V domains shown)
VH: B7 VH with I2V, S97A
VL: DVLMAQTPLSLPVSLGDQASISCRSSQTIVHSDGNTYLEWYLQKPGQSPKLLIYKVSNRFSGVPDRFSGSGSGTDFTLKISRVEAEDLGVYYCFQGSHVPWTFGGGTKLEIKR
B14: PR302309-14 (antibody, human IgG1, kappa, V domains shown)
VH: B7 VH
VL: B13 VL
B15: PR302309-15 (antibody, human IgG1, kappa, V domains shown)
VH: QVQLVQSGAEVKKPGASVKVSCKASGYTFTNYGMNWVRQAPGQRLEWMGWINTYTGEPIYTDDFKGRVTITRDTSASTAYMELSSLRSEDTAVYYCARSTMITTGGVFAYWGQGTLVTVSS
VL: B13 VL
B16: PR302309-16 (antibody, human IgG1, kappa, V domains shown)
VH: B15 VH with V2I, R72L, A97S
VL: B13 VL
B17: PR302309-17 (antibody, human IgG1, kappa, V domains shown)
VH: B7 VH with I2V, S97A
VL: B1 VL with F41Y, R51L, V88L
B18: PR302309-18 (antibody, human IgG1, kappa, V domains shown)
VH: B15 VH
VL: B1 VL with F41Y, R51L, V88L
B19: PR302309-19 (antibody, human IgG1, kappa, V domains shown)
VH: B15 VH with V2I, R72L, A97S
VL: B1 VL with F41Y, R51L, V88L
B20: PR302309-20 (antibody, human IgG1, kappa, V domains shown)
VH: B15 VH with V2I, R72L, A97S
VL: B13 VL with L3V, A5T, P12S, S14T, L15P, D17Q, Q18P, K50Q, L109V
B21: PR302309-21 (antibody, human IgG1, kappa, V domains shown)
VH: B15 VH with V2I, R72L, A97S
VL: B1 VL with S7T, L11S, F41Y, S48P, R51L, S72A, V88L
B22: PR302334-24 (antibody, human IgG1, kappa, V domains shown)
VH: EVQLVESGGGLVKPGGSLRLSCAASGFTFSTYAMSWVRQAPGKGLEWVASIRSGGTTYYPDSVKGRFTISRDNAKNSLYLQMNSLRAEDTAVYYCTRGIDWGQGTTVTVSS
VL: DIVMTQSPDSLAVSLGERATINCKASQSVNNDVAWYQQKPGQPPRLLIYYASNRYTGVPDRFSGSGSGTDFTLTISSLQAEDLAVYFCQQDYSSWTFGGGTKVEIKR
B23: PR302334-25 (antibody, human IgG1, kappa, V domains shown)
VH: B22 VH
VL: DIQMTQSSLSASVSLGDRVTITCKASQSVNNDVAWYQQKPGKAPRLLIYYASNRYTGVPSRFSGSGSGTDFTFTISSLQPEDLATYFCQQDYSSWTFGGGTKVEIKR
B24: PR302334-26 (antibody, human IgG1, kappa, V domains shown)
VH: B22 VH with K13Q, A74S
VL: B22 VL
B25: PR302334-27 (antibody, human IgG1, kappa, V domains shown)
VH: B22 VH with K13Q, A74S
VL: B23 VL
B26: PR004289 (antibody, human IgG1, kappa, V domains shown)
VH: EVQLVESGGVLVQPGGSLRLSCAASGFIFSSYWMTWVRQAPGKGLEWVANIKQDGSEKYYVDSVKGRFTISRDNAKNSLFLQMNSLRAEDTAVYYCARTLIFDYWGQGTLVTVSS
VL: DIVMTQSPLSLPVTPGEPASISCRSSQSLLHSTGYNSLEWYLQKPGQSPQLLIYLGSNRASGVPDRFSGSGSGTDFTLKISRVEAEDVGIYYCMQTLQTPITFGQGTRLEIKR
notes: Expressed recombinantly with human IgG1 wildtype Fc; also called Hybridoma Clone 16g2; Series 1 mAb
B27: PR006669 (antibody, human IgG1, kappa, V domains shown)
VH: EVQLVESGGGLVQPGGSLRLSCAASGFTFSDNWMSWVRQAPGKGLEWVANIKQDGSENYYVDSVKGRFTISRDNAKNSLYLQMNSLRAEDTAVYYCSRGLALWGWGQGTLVTVSS
VL: B26 VL with Q6H, E17D, S37Y, E39D, I80F, S81I, I90V, T96A, I101Y, R108K
B28: PR301612 (antibody, human IgG1, kappa, V domains shown)
VH: EVKLEESGGGLVQPGGSIKLSCVASGFTFSGAWMAWVRQSPEKGLEWVAEIKNKANNHATFYAESVKGRFIISRDDSKSSVYLQMNSLRAEDTGTYYCTLPDVWGTGTTVTVSS
VL: QIVLTQSPAIMSASPGERVTISCSASSSVSNMYWYLQKPGSSPKPWIYRTSNLASGVPARFSGSGSGTSYSLTISSMEAEDVATYYCQQYHSFPRTFGGGTKLEIKR
notes: Mouse variable domains, expressed recombinantly with human IgG1 wildtype Fc; also called Series 4 mAb

How the values were obtained:
[1] = target: T1, corticotropin-releasing hormone (CRH) …; test: cell-based or functional assay
[2] = target: T1, corticotropin-releasing hormone (CRH) …; test: cell-based or functional assay
[3] = target: T2, corticotropin-releasing hormone (CRH) …; test: cell-based or functional assay
CRH (CT-Biotin) = target: T3, CRH (CT-Biotin); test: ELISA, C-terminally biotinylated CRH on streptavidin-coated plate
Experimental: (§1) Streptavidin (Thermo, Cat: 21125) was diluted in PBS to a concentration of 2 μg/ml. 100 μl of diluted streptavidin was added per well to ELISA microplates, and the plates were incubated overnight at 4° C. […] 100 μL of 3,3′,5,5′-tetramethylbenzidine (TMB) substrate (Biopanda, Cat: TMB-S-003) was added, and the plates were incubated at room temperature for 15 minutes. 100 μL of ELISA stopping solution (Solarbio, Cat #: C1058) was added to terminate the reaction, and the optical density at 450 nm (OD450 nm) was determined by an ELISA plate reader (Molecular Devices, Spectra max 384 plus).

CRH (NT-Biotin) = target: T4, CRH (NT-Biotin); test: ELISA, N-terminally biotinylated CRH on streptavidin-coated plate
Experimental: as §1

| Binder | hCRHR1 Luciferase Reporter Assay IC50 [1] [nM] | also measured |
| --- | --- | --- |
| B1 | 4.42 |  |
| B2 | 0.773 |  |
| B3 | 2.22 |  |
| B4 | 1.26 |  |
| B5 | 0.454 |  |
| B6 | 1.08 |  |
| B7 | 6.38 |  |
| B8 | 1.7 |  |
| B9 | 6.08 |  |
| B10 | 3.2 |  |
| B11 | 2.12 |  |
| B12 | 4.47 |  |
| B13 | 7.23 |  |
| B14 | 1.68 |  |
| B15 | 10.5 |  |
| B16 | 5.47 |  |
| B17 | 6.69 |  |
| B18 | 1.73 |  |
| B19 | 4.83 |  |
| B20 | 3.07 |  |
| B21 | 8.44 |  |
| B22 |  | hCRHR1 Luciferase Reporter Assay IC50 [2]: 0.778 nM; mCrhr1 Luciferase Reporter Assay IC50 [2]: 1.82 nM |
| B23 |  | hCRHR1 Luciferase Reporter Assay IC50 [2]: 1.7 nM |
| B24 |  | hCRHR1 Luciferase Reporter Assay IC50 [2]: 1.1 nM; mCrhr1 Luciferase Reporter Assay IC50 [2]: 1.34 nM |
| B25 |  | hCRHR1-Luc 0.5 nM CRH IC50 [2]: 1.36 nM; hCRHR1 Luciferase Reporter Assay IC50 [2]: 1.36 nM; mCrhr1 Luciferase Reporter Assay IC50 [2]: 2.27 nM |
| B26 |  | hCRHR1 Reporter IC50 [3]: 3.13 nM; EC50 (CRH (CT-Biotin)): 0.023 nM; EC50 (CRH (NT-Biotin)): 0.023 nM |
| B27 |  | hCRHR1 Reporter IC50 [3]: 7.38 nM |
| B28 |  | hCRHR1 Reporter IC50 [3]: 18.1 nM; EC50 (CRH (CT-Biotin)): 0.033 nM |
